Measured values reported in article PMC6443839.

Biological target: amyloid-β protein (Aβ) produced from human APP770 bearing the Swedish mutation (APPswe) in rat hippocampal neurons (human)
Test: SDS-PAGE with western blot

amyloid-β protein (Aβ) produced from human APP770 bearing the Swedish mutation (APPswe) in rat hippocampal neurons (peptide)
stoichiometry N: 3
